# Test results as given in PMC8689640 (ACS Synthetic Biology, 2021).
# B1: wild-type Murine polyomavirus VP1 (natural protein, UniProt P03090 1-383, looked up)
# chain: MAPKRKSGVSKCETKCTKACPRPAPVPKLLIKGGMEVLDLVTGPDSVTEIEAFLNPRMGQPPTPESLTEGGQYYGWSRGINLATSDTWIPRNNTLPTWSMAKSSFPCLNEDLTCDTLQMWEAVSVKTEVVGSGSLLDVHGFNKTHRFSKHKGNSTPVEGSQYHVFAGGGEPLDLQGLVTDARTKYKEEGVVTIKTITKKDMVNKDQVLNPISKAKLDKDGMYPVEIWHPDPAKNENTRYFGNYTGGTTAPPVLQFTNTLTTVLLDENGVGPLCKGEGLYLSCVDIMGWRVTRNYVSSLEKGFPRYFKITLRKRWVKNPYPMASLISSLFNNMLPQVQGQPMEGENTQVEEVRVYDGTEPVPGDPDMTRYVDRFGKTKTVFPGN
# Columns and labels:
# [1] = target: ΔVP1, Murine polyomavirus VP1 with the putative nuclear localization signal deleted (Murine polyomavirus) (UniProt P03090); assay: SEC-MALS
# SEC-MALS = target: the molecule itself; assay: SEC-MALS
Molecule,stoichiometry N [1] [pentamers],stoichiometry N (SEC-MALS) [pentamers]
"ΔVP1, Murine polyomavirus VP1 with the putative nuclear localization signal deleted (from UniProt P03090 1-383) (natural protein)",72,–
B1,–,~72
